The target in experiment [1] is 125I-[Threonine59]IGF-I binding sites in adult rat brain sections (level of the cerebellum and brain stem) (rat). Briefly: displacement of 0.01 nM 125I-[Thr59]IGF-I from rat brain sections; competitor at 1 mM.
The target is the same in experiment [2]. Briefly: displacement of 0.01 nM 125I-[Thr59]IGF-I from rat brain sections; competitor at .10 mM.
The target is the same in experiment [3]. Nature of the experiment: displacement of 0.01 nM 125I-[Thr59]IGF-I from rat brain sections; competitor at .025 mM.
Experiment [4] has the same target. Briefly: displacement of 0.01 nM 125I-[Thr59]IGF-I from rat brain sections; competitor at .25 mM.

SRVSRRSR [IGF-II(33-40)]: the percent max. bound in experiment [1] amounted to 76%; in experiment [2], 82%.

ALLETYCATPAKSE [IGF-II(54-67)]: the percent max. bound in experiment [3] turned out to be 132%; in experiment [4] it was 167%.

Values taken from patent US6693076.
